Target: hERG (channel tested in the hERG FastPatch assay) (UniProt Q12809 1-1159)
Assay: cell-based or functional assay

Chain of hERG (channel tested in the hERG FastPatch assay) (Q12809 whole entry): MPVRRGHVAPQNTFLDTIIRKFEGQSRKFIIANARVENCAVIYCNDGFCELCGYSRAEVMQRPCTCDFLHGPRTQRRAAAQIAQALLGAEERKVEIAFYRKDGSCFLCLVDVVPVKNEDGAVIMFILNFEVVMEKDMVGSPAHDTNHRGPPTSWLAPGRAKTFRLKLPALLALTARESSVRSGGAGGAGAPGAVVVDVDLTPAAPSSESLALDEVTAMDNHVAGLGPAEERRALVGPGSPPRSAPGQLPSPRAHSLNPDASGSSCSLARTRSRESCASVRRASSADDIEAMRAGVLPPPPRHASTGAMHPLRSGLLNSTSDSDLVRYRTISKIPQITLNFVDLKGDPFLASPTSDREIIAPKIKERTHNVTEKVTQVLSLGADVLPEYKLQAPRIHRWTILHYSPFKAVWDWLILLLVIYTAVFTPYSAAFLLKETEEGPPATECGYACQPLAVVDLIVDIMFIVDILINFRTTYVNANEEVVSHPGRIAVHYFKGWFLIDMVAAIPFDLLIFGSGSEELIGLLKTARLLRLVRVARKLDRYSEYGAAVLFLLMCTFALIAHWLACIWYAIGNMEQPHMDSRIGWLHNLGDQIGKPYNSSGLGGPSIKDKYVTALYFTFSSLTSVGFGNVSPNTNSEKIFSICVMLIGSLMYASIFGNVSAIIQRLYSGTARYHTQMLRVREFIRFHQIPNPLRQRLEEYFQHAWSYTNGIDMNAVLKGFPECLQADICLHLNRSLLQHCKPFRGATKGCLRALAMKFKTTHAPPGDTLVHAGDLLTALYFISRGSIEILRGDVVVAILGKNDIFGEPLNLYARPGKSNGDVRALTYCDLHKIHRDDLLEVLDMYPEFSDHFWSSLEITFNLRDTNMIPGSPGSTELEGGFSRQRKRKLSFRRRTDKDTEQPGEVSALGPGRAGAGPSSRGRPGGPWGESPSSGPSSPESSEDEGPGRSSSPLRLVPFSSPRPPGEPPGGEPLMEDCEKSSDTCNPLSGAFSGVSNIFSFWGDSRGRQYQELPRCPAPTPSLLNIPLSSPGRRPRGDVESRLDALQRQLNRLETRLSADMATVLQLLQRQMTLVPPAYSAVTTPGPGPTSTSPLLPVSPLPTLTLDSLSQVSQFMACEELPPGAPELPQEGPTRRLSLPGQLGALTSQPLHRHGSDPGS

B1: SP16 peptide (C36 Core sequence, long; derived from human alpha-1-antitrypsin) (peptide)
peptide: VKFNKPFVFLMIEQNTK
IC50 value (hERG FastPatch assay, test conc 0.008-25 uM): > 25 µM

From patent US20140378372A1 (SERPIN PHARMA, published 2014)
